Results: publication PMC8153730 (Science Advances, 2021)

B1: recombinant glutathione S-transferase (GST) SETD6 (enzyme)
chain: MATQAKRPRVAGPVDGGDLDPVACFLSWCRRVGLELSPKVSERAGGRRTRGGARAALTSPPAQVAVSRQGTVAGYGMVARESVQAGELLFVVPRAALLSQHTCSIGGLLERERVALQSQSGWVPLLLALLHELQAPASRWRPYFALWPELGRLEHPMFWPEEERRCLLQGTGVPEAVEKDLANIRSEYQSIVLPFMEAHPDLFSLRVRSLELYHQLVALVMAYSFQEPLEEEEDEKEPNSPVMVPAADILNHLANHNANLEYSANCLRMVATQPIPKGHEIFNTYGQMANWQLIHMYGFVEPYPDNTDDTADIQMVTVREAALQGTKTEAERHLVYERWDFLCKLEMVGEEGAFVIGREEVLTEEELTTTLKVLCMPAEEFRELKDQDGGGDDKREEGSLTITNIPKLKASWRQLLQNSVLLTLQTYATDLKTDQGLLSNKEVYAKLSWREQQALQVRYGQKMILHQLLELTS
B2: His E2F1 (natural protein)
chain: not shown

Key:
[1] = target: recombinant His BRD4 (1-477aa) (UniProt O60885 1-477); experiment: ELISA
[2] = target: His-Sumo BRD4 (1-477aa) wild type, not methylated (UniProt O60885 1-477); experiment: ELISA

| Binder | binding result [1] | binding result [2] |
| --- | --- | --- |
| B1 | binds | – |
| B2 | – | binds |
